Assays:
[1] = target: recombinant glutathione S-transferase (GST) NudE (UniProt Q9CZA6); test: pull-down; 1 ug/ul GST-NudE or GST-CC1 with glutathione agarose 4B and pre-cleared whole brain lysate of P0 wild-type or Loa/Loa mice; phosphate-glutamate buffer (10 mM sodium phosphate, 100 mM sodium glutamate, pH 7.0, 1 mM MgSO4, 1 mM EDTA, 1 mM DTT, 0.2% NP-40), 4°C, 2 hours; western blot of supernatants and pellets
[2] = target: GST-tagged CC1 fragment from the dynactin subunit p150Glued; test: as above

Sequence of UniProt Q9CZA6 (Q9CZA6 whole entry, the tested form may be a part): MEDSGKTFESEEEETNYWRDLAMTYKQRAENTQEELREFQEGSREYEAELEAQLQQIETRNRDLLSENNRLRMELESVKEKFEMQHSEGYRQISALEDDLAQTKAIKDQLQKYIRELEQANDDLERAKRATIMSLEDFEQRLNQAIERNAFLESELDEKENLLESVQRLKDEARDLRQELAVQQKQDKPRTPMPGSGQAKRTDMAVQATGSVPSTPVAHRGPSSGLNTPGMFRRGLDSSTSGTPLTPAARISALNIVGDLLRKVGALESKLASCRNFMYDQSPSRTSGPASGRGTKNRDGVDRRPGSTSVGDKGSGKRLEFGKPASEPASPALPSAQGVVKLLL

Row | Substance | percent of heavy chain in the NudE pellet [1] [%] | percent of heavy chain in the pellet [2] [%]
1 | Loa/Loa mutant cytoplasmic dynein (from UniProt Q9JHU4 1-4644; O88485 1-628) (complex) | 57.7 | 40.7
2 | wild-type cytoplasmic dynein (from UniProt Q9JHU4 1-4644; O88485 1-628) (complex) | 66.2 | 45.3
